Seven substances from the supplement of paper PMC5998384 can be followed below.

The subject of series [1] is HeLa Kyoto. Kind of series: thermal stability score vs G1/S (z-score of summed log2 fold changes over temperatures); higher = more thermally stable than in G1/S.
Series [2] relates to HeLa Kyoto. Description: solubility change mitosis vs G1/S (difference of NP-40 vs SDS log2 ratios) (log2 ratio difference); higher = more soluble in mitosis.
Series [3] relates to HeLa Kyoto. Kind of series: solubility in G1/S (NP-40 vs SDS abundance) (log2 ratio); higher = more soluble. The settings on record: cell cycle stage: G1/S.
Series [4] relates to HeLa Kyoto. Kind of series: melting temperature (median over replicates), in situ; higher = more thermally stable.
[5] abbreviates: cell cycle stage: early G1 (4.5 h after nocodazole release).
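Throughout, for melting temperature (median over replicates), in situ: HeLa Kyoto cells synchronized by double thymidine or nocodazole block, proteins quantified by TMT10plex mass spectrometry, three independent biological replicates.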
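Throughout, for solubility change mitosis vs G1/S (difference of NP-40 vs SDS log2 ratios): synchronized HeLa Kyoto cells (double thymidine block for G1/S, nocodazole release for mitosis), protein amounts in NP-40 versus SDS lysates quantified by mass spectrometry, three biological replicates.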
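Throughout, for solubility in G1/S (NP-40 vs SDS abundance): HeLa Kyoto cells arrested at G1/S by double thymidine block, proteins quantified by TMT10plex mass spectrometry in mild NP-40 versus SDS extracts, three biological replicates.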
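Throughout, for thermal stability score vs G1/S (z-score of summed log2 fold changes over temperatures): synchronized HeLa Kyoto cells, proteins quantified by TMT10plex mass spectrometry, three biological replicates, mitosis taken 0.5 h after nocodazole release, G1/S directly after double thymidine block.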

ASNA1, sequence (chain, as listed by the source): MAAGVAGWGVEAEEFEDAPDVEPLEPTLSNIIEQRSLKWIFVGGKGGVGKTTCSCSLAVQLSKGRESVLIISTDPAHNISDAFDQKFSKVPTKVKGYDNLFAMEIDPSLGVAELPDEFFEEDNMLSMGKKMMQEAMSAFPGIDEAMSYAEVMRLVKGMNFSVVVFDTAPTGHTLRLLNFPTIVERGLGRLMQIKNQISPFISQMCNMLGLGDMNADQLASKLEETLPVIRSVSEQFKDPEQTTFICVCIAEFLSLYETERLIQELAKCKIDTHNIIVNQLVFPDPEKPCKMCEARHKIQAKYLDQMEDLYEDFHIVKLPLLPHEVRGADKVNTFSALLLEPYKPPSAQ

For “MAATFFGEVVKAPCRAGTEDEEEEEEGRRETPEDREVRLQLARKREVRLLRRQTKTSLEVSLLEKYPCSKFIIAIGNNAVAFLSSFVMNSGVWEEVGCAKLWNEWCRTTDTTHLSSTEAFCVFYHLKSNPSVFLCQCSCYVAEDQQYQWLEKVFGSCPRKNMQITILTCRHVTDYKTSESTGSLPSPFLRALKTQNFKDSACCPLLEQPNIVHDLPAAVLSYCQVWKIPAILYLCYTDVMKLDLITVEAFKPILSTRSLKGLVKNIPQSTEILKKLMTTNEIQSNIYT [PSMG1]”, the thermal stability score in the series on HeLa Kyoto [1] (setting [5]) is -0.428; in the series on HeLa Kyoto [1] (cell cycle stage: mitosis), -1.27. Also, the “solubility change mitosis (log2)” value in the series with HeLa Kyoto [2] was -0.142. For the same substance, the “solubility in G1/S (log2)” value with HeLa Kyoto [3] worked out at 0.0966. In addition, the melting temperature in the series with HeLa Kyoto [4] (cell cycle stage: G1/S) is 54.7 °C; in the series with HeLa Kyoto [4] (cell cycle stage: mitosis), 54.4 °C.

As for “MPLSRWLRSVGVFLLPAPYWAPRERWLGSLRRPSLVHGYPVLAWHSARCWCQAWTEEPRALCSSLRMNGDQNSDVYAQEKQDFVQHFSQIVRVLTEDEMGHPEIGDAIARLKEVLEYNAIGGKYNRGLTVVVAFRELVEPRKQDADSLQRAWTVGWCVELLQAFFLVADDIMDSSLTRRGQICWYQKPGVGLDAINDANLLEACIYRLLKLYCREQPYYLNLIELFLQSSYQTEIGQTLDLLTAPQGNVDLVRFTEKRYKSIVKYKTAFYSFYLPIAAAMYMAGIDGEKEHANAKKILLEMGEFFQIQDDYLDLFGDPSVTGKIGTDIQDNKCSWLVVQCLQRATPEQYQILKENYGQKEAEKVARVKALYEELDLPAVFLQYEEDSYSHIMALIEQYAAPLPPAVFLGLARKIYKRRK [FDPS]”, the values for the thermal stability score with HeLa Kyoto [1] (setting [5]) and in the series with HeLa Kyoto [1] (cell cycle stage: mitosis) were 2.88 and 3.37, respectively. Besides, the “solubility change mitosis (log2)” value in the series on HeLa Kyoto [2] was -0.0646. For the same substance, in the series with HeLa Kyoto [3], the “solubility in G1/S (log2)” value was determined as 0.151. Further, the figures for the melting temperature in the series with HeLa Kyoto [4] (cell cycle stage: G1/S) and in the series with HeLa Kyoto [4] (cell cycle stage: mitosis) were 50.8 °C and 51 °C, respectively.

Turning to “MPTQRDSSTMSHTVAGGGSGDHSHQVRVKAYYRGDIMITHFEPSISFEGLCNEVRDMCSFDNEQLFTMKWIDEEGDPCTVSSQLELEEAFRLYELNKDSELLIHVFPCVPERPGMPCPGEDKSIYRRGARRWRKLYCANGHTFQAKRFNRRAHCAICTDRIWGLGRQGYKCINCKLLVHKKCHKLVTIECGRHSLPQEPVMPMDQSSMHSDHAQTVIPYNPSSHESLDQVGEEKEAMNTRESGKASSSLGLQDFDLLRVIGRGSYAKVLLVRLKKTDRIYAMKVVKKELVNDDEDIDWVQTEKHVFEQASNHPFLVGLHSCFQTESRLFFVIEYVNGGDLMFHMQRQRKLPEEHARFYSAEISLALNYLHERGIIYRDLKLDNVLLDSEGHIKLTDYGMCKEGLRPGDTTSTFCGTPNYIAPEILRGEDYGFSVDWWALGVLMFEMMAGRSPFDIVGSSDNPDQNTEDYLFQVILEKQIRIPRSLSVKAASVLKSFLNKDPKERLGCHPQTGFADIQGHPFFRNVDWDMMEQKQVVPPFKPNISGEFGLDNFDSQFTNEPVQLTPDDDDIVRKIDQSEFEGFEYINPLLMSAEECV [PRKCI]”, the thermal stability score with HeLa Kyoto [1] (setting [5]) came to 0.877; in the series with HeLa Kyoto [1] (cell cycle stage: mitosis), 0.84. In addition, the “solubility change mitosis (log2)” value with HeLa Kyoto [2] is -0.129. In addition, the “solubility in G1/S (log2)” value with HeLa Kyoto [3] is -0.127. Also, the melting temperature with HeLa Kyoto [4] (cell cycle stage: G1/S) was 50.7 °C; with HeLa Kyoto [4] (cell cycle stage: mitosis), 51 °C.

Consider ASNA1, for which the thermal stability score amounted to 0.0219 with HeLa Kyoto [1] (setting [5]) and 1.19 in the series with HeLa Kyoto [1] (cell cycle stage: mitosis). Also, in the series with HeLa Kyoto [2], the “solubility change mitosis (log2)” value is -0.258. The “solubility in G1/S (log2)” value with HeLa Kyoto [3] came to 0.349. In addition, the melting temperature is 53.4 °C with HeLa Kyoto [4] (cell cycle stage: G1/S) and 54.6 °C in the series on HeLa Kyoto [4] (cell cycle stage: mitosis).

Turning to “MLWFQGAIPAAIATAKRSGAVFVVFVAGDDEQSTQMAASWEDDKVTEASSNSFVAIKIDTKSEACLQFSQIYPVVCVPSSFFIGDSGIPLEVIAGSVSADELVTRIHKVRQMHLLKSETSVANGSQSESSVSTPSASFEPNNTCENSQSRNAELCEIPPTSDTKSDTATGGESAGHATSSQEPSGCSDQRPAEDLNIRVERLTKKLEERREEKRKEEEQREIKKEIERRKTGKEMLDYKRKQEEELTKRMLEERNREKAEDRAARERIKQQIALDRAERAARFAKTKEEVEAAKAAALLAKQAEMEVKRESYARERSTVARIQFRLPDGSSFTNQFPSDAPLEEARQFAAQTVGNTYGNFSLATMFPRREFTKEDYKKKLLDLELAPSASVVLLPAGRPTASIVHSSSGDIWTLLGTVLYPFLAIWRLISNFLFSNPPPTQTSVRVTSSEPPNPASSSKSEKREPVRKRVLEKRGDDFKKEGKIYRLRTQDDGEDENNTWNGNSTQQM [UBXN4]”, the thermal stability score in the series with HeLa Kyoto [1] (setting [5]) is -0.0363; with HeLa Kyoto [1] (cell cycle stage: mitosis), 0.462. Besides, the “solubility change mitosis (log2)” value in the series with HeLa Kyoto [2] is -0.108. Also, the “solubility in G1/S (log2)” value with HeLa Kyoto [3] was -0.0609. Further, the melting temperature was 51.8 °C with HeLa Kyoto [4] (cell cycle stage: G1/S) and 52.1 °C in the series with HeLa Kyoto [4] (cell cycle stage: mitosis).

Take “MAQRKNAKSSGNSSSSGSGSGSTSAGSSSPGARRETKHGGHKNGRKGGLSGTSFFTWFMVIALLGVWTSVAVVWFDLVDYEEVLGKLGIYDADGDGDFDVDDAKVLLGLKERSTSEPAVPPEEAEPHTEPEEQVPVEAEPQNIEDEAKEQIQSLLHEMVHAEHVEGEDLQQEDGPTGEPQQEDDEFLMATDVDDRFETLEPEVSHEETEHSYHVEETVSQDCNQDMEEMMSEQENPDSSEPVVEDERLHHDTDDVTYQVYEEQAVYEPLENEGIEITEVTAPPEDNPVEDSQVIVEEVSIFPVEEQQEVPPETNRKTDDPEQKAKVKKKKPKLLNKFDKTIKAELDAAEKLRKRGKIEEAVNAFKELVRKYPQSPRARYGKAQCEDDLAEKRRSNEVLRGAIETYQEVASLPDVPADLLKLSLKRRSDRQQFLGHMRGSLLTLQRLVQLFPNDTSLKNDLGVGYLLIGDNDNAKKVYEEVLSVTPNDGFAKVHYGFILKAQNKIAESIPYLKEGIESGDPGTDDGRFYFHLGDAMQRVGNKEAYKWYELGHKRGHFASVWQRSLYNVNGLKAQPWWTPKETGYTELVKSLERNWKLIRDEGLAVMDKAKGLFLPEDENLREKGDWSQFTLWQQGRRNENACKGAPKTCTLLEKFPETTGCRRGQIKYSIMHPGTHVWPHTGPTNCRLRMHLGLVIPKEGCKIRCANETKTWEEGKVLIFDDSFEHEVWQDASSFRLIFIVDVWHPELTPQQRRSLPAI [ASPH]”: the figures for the thermal stability score in the series on HeLa Kyoto [1] (setting [5]) and in the series on HeLa Kyoto [1] (cell cycle stage: mitosis) were 1.63 and 2.03, respectively. In the series with HeLa Kyoto [2], the “solubility change mitosis (log2)” value is 0.0282. The “solubility in G1/S (log2)” value with HeLa Kyoto [3] is -0.00862. Moreover, the values for the melting temperature in the series with HeLa Kyoto [4] (cell cycle stage: G1/S) and with HeLa Kyoto [4] (cell cycle stage: mitosis) were 54.2 °C and 53.5 °C, respectively.

As to “MADGQMPFSCHYPSRLRRDPFRDSPLSSRLLDDGFGMDPFPDDLTASWPDWALPRLSSAWPGTLRSGMVPRGPTATARFGVPAEGRTPPPFPGEPWKVCVNVHSFKPEELMVKTKDGYVEVSGKHEEKQQEGGIVSKNFTKKIQLPAEVDPVTVFASLSPEGLLIIEAPQVPPYSTFGESSFNNELPQDSQEVTCT [HSPB8]”, the thermal stability score with HeLa Kyoto [1] (setting [5]) was -0.244; in the series with HeLa Kyoto [1] (cell cycle stage: mitosis), 0.347. For the same substance, in the series on HeLa Kyoto [2], the “solubility change mitosis (log2)” value was determined as 0.167. The “solubility in G1/S (log2)” value in the series on HeLa Kyoto [3] is 0.653. In addition, the melting temperature amounted to 52.3 °C with HeLa Kyoto [4] (cell cycle stage: G1/S) and 52.1 °C in the series on HeLa Kyoto [4] (cell cycle stage: mitosis).
